Among the data in paper PMC6862464, “Structural Insights into AQP2 Targeting to Multivesicular Bodies” (International Journal of Molecular Sciences, 2019) are Kd values, retold here.

Holding throughout (test): other fluorescence titration; Alexa 488-labeled, dephosphorylated AQP2 (around 1 uM) in the cuvette, titrated with unlabeled LIP5; total fluorescence; 20 mM Tris-HCl pH 8, 300 mM NaCl, 0.2% OGNG; triplicate titrations
Holding throughout (conditions): both partners purified

In experiment [1] the target is T1, full-length human LIP5 K71A (human, UniProt Q9NP79 1-307, K71A).
T1 construct: LIP5, human, full length, point mutant; spacer before the TEV site and His tag, as in m2; Mutant of m2; dimer as said of full-length LIP5 (cited); source: E. coli BL21*(DE3), purified (HisTrap, SEC)
T1 sequence: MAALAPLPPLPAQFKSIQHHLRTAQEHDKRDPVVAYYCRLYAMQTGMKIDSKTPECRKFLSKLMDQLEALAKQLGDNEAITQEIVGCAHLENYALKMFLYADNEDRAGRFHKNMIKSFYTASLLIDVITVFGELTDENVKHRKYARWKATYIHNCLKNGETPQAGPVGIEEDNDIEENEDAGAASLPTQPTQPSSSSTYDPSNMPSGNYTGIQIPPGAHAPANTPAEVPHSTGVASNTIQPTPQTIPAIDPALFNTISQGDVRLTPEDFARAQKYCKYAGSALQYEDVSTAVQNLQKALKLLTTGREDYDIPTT

Experiment [2] has as its target T2, full-length human LIP5 D65A (human, UniProt Q9NP79 1-307, D65A).
T2 construct: LIP5, human, full length, point mutant; spacer before the TEV site and His tag, as in m2; Mutant of m2; dimer as said of full-length LIP5 (cited); source: E. coli BL21*(DE3), purified (HisTrap, SEC)
T2 sequence: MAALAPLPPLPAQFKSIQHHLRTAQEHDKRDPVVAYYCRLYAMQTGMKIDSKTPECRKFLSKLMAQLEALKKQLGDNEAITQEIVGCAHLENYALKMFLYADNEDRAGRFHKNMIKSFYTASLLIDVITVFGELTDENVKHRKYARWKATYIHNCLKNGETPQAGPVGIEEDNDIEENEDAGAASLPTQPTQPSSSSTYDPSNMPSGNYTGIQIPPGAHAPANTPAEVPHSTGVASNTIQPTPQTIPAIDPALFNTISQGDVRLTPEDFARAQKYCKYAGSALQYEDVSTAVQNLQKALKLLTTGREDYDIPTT

The target of experiment [3] is T3, full-length human LIP5 E68A (human, UniProt Q9NP79 1-307, E68A).
T3 construct: LIP5, human, full length, point mutant; spacer before the TEV site and His tag, as in m2; Mutant of m2; dimer as said of full-length LIP5 (cited); source: E. coli BL21*(DE3), purified (HisTrap, SEC)
T3 sequence: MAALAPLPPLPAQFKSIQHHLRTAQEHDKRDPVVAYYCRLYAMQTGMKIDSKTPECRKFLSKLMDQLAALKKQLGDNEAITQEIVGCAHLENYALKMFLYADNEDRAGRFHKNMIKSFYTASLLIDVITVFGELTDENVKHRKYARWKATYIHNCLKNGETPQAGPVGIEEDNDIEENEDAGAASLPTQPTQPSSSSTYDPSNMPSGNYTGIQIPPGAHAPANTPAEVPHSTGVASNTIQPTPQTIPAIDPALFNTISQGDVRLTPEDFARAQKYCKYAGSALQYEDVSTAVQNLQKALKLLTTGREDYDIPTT

The target in experiment [4] is T4, full-length human LIP5 M47A (human, UniProt Q9NP79 1-307, M47A).
T4 construct: LIP5, human, full length, point mutant; spacer before the TEV site and His tag, as in m2; Mutant of m2; dimer as said of full-length LIP5 (cited); source: E. coli BL21*(DE3), purified (HisTrap, SEC)
T4 sequence: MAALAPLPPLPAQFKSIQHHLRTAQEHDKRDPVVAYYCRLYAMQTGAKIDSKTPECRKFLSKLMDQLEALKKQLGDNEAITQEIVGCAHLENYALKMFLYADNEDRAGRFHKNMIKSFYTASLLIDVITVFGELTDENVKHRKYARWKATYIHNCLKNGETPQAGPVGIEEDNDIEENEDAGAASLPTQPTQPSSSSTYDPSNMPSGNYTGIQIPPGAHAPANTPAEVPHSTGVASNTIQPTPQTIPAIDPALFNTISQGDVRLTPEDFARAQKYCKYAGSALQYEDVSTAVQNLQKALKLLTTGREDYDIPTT

Experiment [5] concerns the target T5, full-length human LIP5 L67A (human, UniProt Q9NP79 1-307, L67A).
T5 construct: LIP5, human, full length, point mutant; spacer before the TEV site and His tag, as in m2; Mutant of m2; dimer as said of full-length LIP5 (cited); source: E. coli BL21*(DE3), purified (HisTrap, SEC)
T5 sequence: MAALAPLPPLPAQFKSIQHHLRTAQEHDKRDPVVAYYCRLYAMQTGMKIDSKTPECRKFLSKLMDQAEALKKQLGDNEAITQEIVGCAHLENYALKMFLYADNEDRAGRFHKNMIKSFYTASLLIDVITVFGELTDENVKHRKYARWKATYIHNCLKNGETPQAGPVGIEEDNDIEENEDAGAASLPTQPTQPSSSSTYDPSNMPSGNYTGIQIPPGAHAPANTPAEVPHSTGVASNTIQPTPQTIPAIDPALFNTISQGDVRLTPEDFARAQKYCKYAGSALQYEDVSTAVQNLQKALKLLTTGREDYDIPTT

The target of experiment [6] is T6, full-length human lysosomal trafficking regulator-interacting protein 5 (FL-LIP5) (human, UniProt Q9NP79 1-307).
T6 construct: spacer between the last LIP5 residue and the TEV protease site that precedes the His tag; same tag, TEV site and linker as ND-LIP5; No TEV cleavage is described; also called full-length LIP5; wild-type LIP5; source: E. coli BL21*(DE3), purified (HisTrap, SEC)
T6 sequence: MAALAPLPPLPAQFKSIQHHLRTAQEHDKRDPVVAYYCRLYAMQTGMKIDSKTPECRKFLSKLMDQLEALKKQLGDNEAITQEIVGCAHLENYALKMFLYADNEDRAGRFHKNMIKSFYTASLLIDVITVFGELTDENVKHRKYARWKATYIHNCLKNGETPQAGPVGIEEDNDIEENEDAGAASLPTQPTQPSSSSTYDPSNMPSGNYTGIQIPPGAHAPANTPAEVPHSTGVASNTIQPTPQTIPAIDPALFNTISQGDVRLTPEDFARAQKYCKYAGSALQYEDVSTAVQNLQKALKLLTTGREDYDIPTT

B1: human aquaporin 2 (AQP2), wild-type (natural protein, UniProt P41181 1-271, looked up)
chain: MWELRSIAFSRAVFAEFLATLLFVFFGLGSALNWPQALPSVLQIAMAFGLGIGTLVQALGHISGAHINPAVTVACLVGCHVSVLRAAFYVAAQLLGAVAGAALLHEITPADIRGDLAVNALSNSTTAGQAVTVELFLTLQLVLCIFASTDERRGENPGTPALSIGFSVALGHLLGIHYTGCSMNPARSLAPAVVTGKFDDHWVFWIGPLVGAILGSLLYNYVLFPPAKSLSERLAVLKGLEPDTDWEEREVRRRQSVELHSPQSLPRGTKA
modifications: cysteine residues labeled with C5 maleimide Alexa 488; dephosphorylated with alkaline phosphatase before labeling
notes: concentrations and molar ratios seem to count monomers; His-tag is called uncleavable; also called WT; labeled AQP2; source: Pichia pastoris, purified (HisTrap, SEC) in OGNG; not shown: His-tag, N-terminal, kept
As a reminder, the Kd is the concentration at which binding is half-saturated. For B1, the Kd turned out to be 0.137 µM in experiment [1]; 0.149 µM in experiment [2]; 0.243 µM in experiment [3]; 0.463 µM in experiment [4]; 0.298 µM in experiment [5]; 0.237 µM in experiment [6].
